Laboratory results from US6913892.
Where no end group is shown, it is not given here.

Target: Y2-like receptor population expressed by human SK-N-Be(2) neuroblastoma cells
Experiment: 125I-PYY displacement, SK-N-Be(2) membranes

SPEELSRYYASLRHYLNLVTRQRY-NH2 (peptide, UniProt P68005 13-36, looked up) [porcine PYY13-36]
Ki: 0.86 nM
